PMC9482650, “Quantitative fragmentomics allow affinity mapping of interactomes” (Nature Communications, 2022)

Legend:
Test in all cases: holdup assay
Set-up in all cases: key: below the threshold = too weak to quantify, mostly under pKd 3.1 to 4
[1] = target: T1, ARHGAP21, Q5T5U3
T1 sequence (Q5T5U3 45-169, limits assumed, looked up): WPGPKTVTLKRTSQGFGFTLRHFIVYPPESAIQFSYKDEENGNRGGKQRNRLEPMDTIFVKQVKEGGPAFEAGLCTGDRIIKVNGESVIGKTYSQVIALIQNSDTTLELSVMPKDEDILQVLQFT

[2] = target: T2, ARHGEF11, O15085
T2 sequence (O15085 42-136, limits assumed, looked up): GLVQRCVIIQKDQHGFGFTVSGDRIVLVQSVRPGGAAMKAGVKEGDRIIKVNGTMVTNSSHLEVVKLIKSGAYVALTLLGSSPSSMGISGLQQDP

[3] = target: T3, DFNB31_3, Q9P202
T3 sequence (Q9P202 811-907, limits assumed, looked up): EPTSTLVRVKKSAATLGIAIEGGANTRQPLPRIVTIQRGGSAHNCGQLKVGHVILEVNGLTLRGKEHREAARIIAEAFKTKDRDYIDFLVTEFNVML

[4] = target: DLG4_2, P78352
DLG4_2, P78352, sequence (P78352 155-259): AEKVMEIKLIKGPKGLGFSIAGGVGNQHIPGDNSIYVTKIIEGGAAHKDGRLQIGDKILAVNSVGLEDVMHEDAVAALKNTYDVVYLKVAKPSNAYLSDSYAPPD

[5] = target: FRMPD2_1, Q68DX3
FRMPD2_1, Q68DX3, sequence (Q68DX3 770-861): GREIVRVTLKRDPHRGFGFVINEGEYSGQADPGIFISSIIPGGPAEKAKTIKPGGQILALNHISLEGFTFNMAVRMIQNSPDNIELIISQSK

[6] = target: T4, GRIP1_2, Q9Y3R0
T4 sequence (Q9Y3R0 145-248, limits assumed, looked up): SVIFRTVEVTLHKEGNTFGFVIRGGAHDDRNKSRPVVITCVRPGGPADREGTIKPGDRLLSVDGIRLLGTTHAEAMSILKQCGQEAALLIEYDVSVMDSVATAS

[7] = target: T5, GRIP1_7, Q9Y3R0
T5 sequence (Q9Y3R0 999-1096, limits assumed, looked up): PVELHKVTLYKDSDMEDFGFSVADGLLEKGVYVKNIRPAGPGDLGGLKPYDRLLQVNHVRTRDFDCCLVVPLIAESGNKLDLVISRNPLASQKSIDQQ

[8] = target: GRIP2_5, Q9C0E4
GRIP2_5, Q9C0E4, sequence (Q9C0E4 544-642): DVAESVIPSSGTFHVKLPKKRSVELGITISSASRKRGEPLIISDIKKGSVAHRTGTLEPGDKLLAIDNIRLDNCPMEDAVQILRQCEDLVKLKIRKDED

[9] = target: IL16_3, Q14005
IL16_3, Q14005, sequence (Q14005 1107-1207): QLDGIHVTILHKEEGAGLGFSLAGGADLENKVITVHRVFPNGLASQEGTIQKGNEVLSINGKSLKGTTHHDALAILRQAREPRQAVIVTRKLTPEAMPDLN

[10] = target: IL16_4, Q14005
IL16_4, Q14005, sequence (Q14005 1229-1329): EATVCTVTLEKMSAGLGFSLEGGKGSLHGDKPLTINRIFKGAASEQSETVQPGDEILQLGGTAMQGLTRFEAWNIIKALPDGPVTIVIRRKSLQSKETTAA

[11] = target: Inadl_3, Q8NI35
Inadl_3, Q8NI35, sequence (Q8NI35 359-469): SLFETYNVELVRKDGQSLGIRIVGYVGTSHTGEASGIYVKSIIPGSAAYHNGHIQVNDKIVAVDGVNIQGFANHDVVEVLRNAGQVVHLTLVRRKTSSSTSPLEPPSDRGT

[12] = target: LAP2, Q96RT1
LAP2, Q96RT1, sequence (Q96RT1 other isoform, or with tags, fused parts or gaps): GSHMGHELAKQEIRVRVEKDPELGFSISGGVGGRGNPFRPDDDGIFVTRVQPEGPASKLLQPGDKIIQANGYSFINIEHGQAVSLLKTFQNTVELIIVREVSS

[13] = target: LNX1_3, Q8TBB1
LNX1_3, Q8TBB1, sequence (Q8TBB1 500-596): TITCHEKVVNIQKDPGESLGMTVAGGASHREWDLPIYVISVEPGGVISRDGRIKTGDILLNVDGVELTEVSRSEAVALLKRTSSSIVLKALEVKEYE

[14] = target: T6, LNX2_3, Q8N448
T6 sequence (Q8N448 463-564, limits assumed, looked up): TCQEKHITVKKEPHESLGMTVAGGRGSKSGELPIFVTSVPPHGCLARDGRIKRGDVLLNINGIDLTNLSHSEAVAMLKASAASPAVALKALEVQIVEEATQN

[15] = target: MAGI2_3, Q86UL8
MAGI2_3, Q86UL8, sequence (Q86UL8 600-682): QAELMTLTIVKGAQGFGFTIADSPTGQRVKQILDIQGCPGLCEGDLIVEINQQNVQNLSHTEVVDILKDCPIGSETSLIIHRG

[16] = target: MAGI2_6, Q86UL8
MAGI2_6, Q86UL8, sequence (Q86UL8 1141-1229): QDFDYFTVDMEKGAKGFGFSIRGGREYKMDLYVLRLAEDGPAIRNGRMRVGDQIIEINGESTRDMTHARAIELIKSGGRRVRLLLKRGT

[17] = target: MAST1, Q9Y2H9
MAST1, Q9Y2H9, sequence (Q9Y2H9 962-1065): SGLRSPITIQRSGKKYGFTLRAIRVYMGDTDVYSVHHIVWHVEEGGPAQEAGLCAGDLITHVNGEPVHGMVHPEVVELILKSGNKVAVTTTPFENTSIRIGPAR

[18] = target: T7, MPDZ_10, O75970
T7 sequence (O75970 1624-1722, limits assumed, looked up): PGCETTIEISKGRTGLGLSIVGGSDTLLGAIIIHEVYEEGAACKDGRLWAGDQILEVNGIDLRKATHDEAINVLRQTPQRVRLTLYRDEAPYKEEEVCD

[19] = target: T8, MPDZ_12, O75970
T8 sequence (O75970 1857-1958, limits assumed, looked up): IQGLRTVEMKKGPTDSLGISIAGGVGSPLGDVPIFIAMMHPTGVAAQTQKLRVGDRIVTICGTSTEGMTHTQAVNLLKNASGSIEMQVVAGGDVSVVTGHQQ

[20] = target: T9, NHERF3_4, Q5T2W1
T9 sequence (Q5T2W1 373-468, limits assumed, looked up): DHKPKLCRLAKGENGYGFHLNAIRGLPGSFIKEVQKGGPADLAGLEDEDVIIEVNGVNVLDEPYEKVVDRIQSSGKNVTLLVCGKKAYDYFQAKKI

[21] = target: T10, PARD3B_1, Q8TEW8
T10 sequence (Q8TEW8 196-299, limits assumed, looked up): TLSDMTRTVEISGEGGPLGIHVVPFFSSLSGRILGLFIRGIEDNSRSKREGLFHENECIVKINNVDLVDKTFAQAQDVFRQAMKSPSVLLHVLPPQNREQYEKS

[22] = target: T11, PCLO, Q9Y6V0
T11 sequence (Q9Y6V0 4491-4600, limits assumed, looked up): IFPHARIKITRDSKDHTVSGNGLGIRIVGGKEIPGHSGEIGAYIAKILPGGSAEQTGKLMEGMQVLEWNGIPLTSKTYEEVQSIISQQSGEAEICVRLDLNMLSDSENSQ

[23] = target: T12, SIPA1L2, Q9P2F8
T12 sequence (Q9P2F8 945-1036, limits assumed, looked up): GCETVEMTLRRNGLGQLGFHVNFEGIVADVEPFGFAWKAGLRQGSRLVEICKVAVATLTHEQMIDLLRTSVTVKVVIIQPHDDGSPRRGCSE

[24] = target: T13, SNTB1, Q13884
T13 sequence (Q13884 107-205, limits assumed, looked up): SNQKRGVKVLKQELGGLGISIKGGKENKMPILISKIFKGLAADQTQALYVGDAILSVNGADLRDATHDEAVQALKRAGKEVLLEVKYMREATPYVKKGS

[25] = plain residues with an end cap or a label only (N-terminal biotin on a linker: ahx)
[26] = plain residues with an end cap or a label only (N-terminal biotin on a linker: ado-ado)

TESNLQTSSC [CGN, Q9P2M7]
pKd [1, 25]: 3.51 | pKd [2, 25]: below the threshold | pKd [3, 25]: below the threshold | pKd [4, 25]: below the threshold | pKd [5, 25]: below the threshold | pKd [6, 25]: below the threshold | pKd [7, 25]: below the threshold | pKd [8, 25]: below the threshold | pKd [9, 25]: 3.53 | pKd [10, 25]: below the threshold | pKd [11, 25]: 3.64 | pKd [12, 25]: below the threshold | pKd [13, 25]: below the threshold | pKd [14, 25]: below the threshold | pKd [15, 25]: below the threshold | pKd [16, 25]: below the threshold | pKd [17, 25]: below the threshold | pKd [18, 25]: 3.9 | pKd [19, 25]: below the threshold | pKd [20, 25]: below the threshold | pKd [21, 25]: below the threshold | pKd [22, 25]: below the threshold | pKd [23, 25]: below the threshold | pKd [24, 25]: below the threshold

APSRKLNTEI [TIAM1, Q13009]
pKd [1, 25]: below the threshold | pKd [2, 25]: below the threshold | pKd [3, 25]: below the threshold | pKd [4, 25]: 3.88 | pKd [5, 25]: below the threshold | pKd [6, 25]: below the threshold | pKd [7, 25]: below the threshold | pKd [8, 25]: below the threshold | pKd [9, 25]: below the threshold | pKd [10, 25]: below the threshold | pKd [11, 25]: below the threshold | pKd [12, 25]: below the threshold | pKd [13, 25]: below the threshold | pKd [14, 25]: below the threshold | pKd [15, 25]: below the threshold | pKd [16, 25]: below the threshold | pKd [17, 25]: below the threshold | pKd [18, 25]: 3.75 | pKd [19, 25]: below the threshold | pKd [20, 25]: below the threshold | pKd [21, 25]: below the threshold | pKd [22, 25]: below the threshold | pKd [23, 25]: below the threshold | pKd [24, 25]: below the threshold

RSSGGDDFWF [KCNV1, Q6PIU1]
pKd [1, 26]: 4.8 | pKd [2, 26]: below the threshold | pKd [3, 26]: 4.02 | pKd [4, 26]: below the threshold | pKd [5, 26]: below the threshold | pKd [6, 26]: below the threshold | pKd [7, 26]: below the threshold | pKd [8, 26]: below the threshold | pKd [9, 26]: below the threshold | pKd [10, 26]: below the threshold | pKd [11, 26]: 3.59 | pKd [12, 26]: below the threshold | pKd [13, 26]: below the threshold | pKd [14, 26]: below the threshold | pKd [15, 26]: below the threshold | pKd [16, 26]: below the threshold | pKd [17, 26]: 4.01 | pKd [18, 26]: below the threshold | pKd [19, 26]: below the threshold | pKd [20, 26]: below the threshold | pKd [21, 26]: 4.48 | pKd [22, 26]: below the threshold | pKd [23, 26]: below the threshold | pKd [24, 26]: below the threshold
